The target in experiment [1] is A244-rgp120 grown in kifunensine treated cells (HIV-1 isolate A244). Briefly: ELISA, mAb titrated on gp120, absorbance 492 nm; curve 496 (A244 gp120 kif). On the technique in general: ELISA stands for enzyme-linked immunosorbent assay.
Experiment [2] concerns the target A244-rgp120 grown in GnTI- cells (HIV-1 isolate A244). Put plainly: ELISA, mAb titrated on gp120, absorbance 492 nm; curve 495 (A244 gp120 GNTI-).
For experiment [3], the target named is 1209 V1/V2/V3/C3 scaffold grown in kifunensine. Put plainly: ELISA, mAb titrated on scaffold, absorbance 492 nm; curve 509 (1209 kif).

Where only a bound is given, the exact number is not on record here.

The term EC50 denotes the concentration needed to bring the measured effect to its halfway point. A low value points to an effect from little substance. In the case of “PGT128 broadly neutralizing monoclonal antibody”, the EC50 in experiment [1] is < 0.01 mg/L; in experiment [2], < 0.01 mg/L; in experiment [3] it was 0.09 mg/L.

The record behind these values is patent US20190091326A1.
